Measured values reported in the supplement of paper PMC9112550, “Optimization of the antimicrobial peptide Bac7 by deep mutational scanning” (BMC Biology, 2022).

System: Escherichia coli TOP10
Assay: shrunken log2 fold change of peptide-encoding DNA abundance (4.5 h post-induction vs induction); higher = less antimicrobial activity (less host growth inhibition)
Conditions: time post-induction: 4.5 h; library: site-saturation at positions 5, 18, 19, 20
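Also: peptides expressed intracellularly from a pBAD plasmid library in pooled LB shake-flask culture, induced with 0.3% L-arabinose, DNA abundance read by NGS, three biological replicates, DESeq2 with apeglm shrinkage.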

Sequence | shrunken log2 fold change
RRIRDRPPRLPRPRPRPIPFPRP | -0.306
RRIRDRPPRLPRPRPRPIQGPRP | 0.00911
RRIRDRPPRLPRPRPRPIQSPRP | -0.0949
RRIRDRPPRLPRPRPRPIRPPRP | -0.0136
RRIRDRPPRLPRPRPRPIVEPRP | 0.0518
RRIRDRPPRLPRPRPRPIVKPRP | 0.0295
RRIRDRPPRLPRPRPRPIYDPRP | -0.0423
RRIRDRPPRLPRPRPRPIYLPRP | 2.37
RRIRDRPPRLPRPRPRPIYQPRP | -0.431
RRIRDRPPRLPRPRPRPKAIPRP | -0.0326
RRIRDRPPRLPRPRPRPKCMPRP | -0.153
RRIRDRPPRLPRPRPRPKDMPRP | 0.0342
RRIRDRPPRLPRPRPRPKDSPRP | -0.0525
RRIRDRPPRLPRPRPRPKDWPRP | 0.601
RRIRDRPPRLPRPRPRPKEFPRP | 0.0479
RRIRDRPPRLPRPRPRPKEPPRP | 0.00859
RRIRDRPPRLPRPRPRPKEVPRP | 0.174
RRIRDRPPRLPRPRPRPKFAPRP | -0.0673
RRIRDRPPRLPRPRPRPKFMPRP | -0.191
RRIRDRPPRLPRPRPRPKGSPRP | -0.145
RRIRDRPPRLPRPRPRPKKRPRP | 0.403
RRIRDRPPRLPRPRPRPKMFPRP | 0.00408
RRIRDRPPRLPRPRPRPKNRPRP | 0.0678
RRIRDRPPRLPRPRPRPKPLPRP | 0.101
RRIRDRPPRLPRPRPRPKQNPRP | 0.277
RRIRDRPPRLPRPRPRPKVMPRP | -0.054
RRIRDRPPRLPRPRPRPKWTPRP | 0.0796

Sequence | shrunken log2 fold change
RRIRDRPPRLPRPRPRPKYGPRP | -0.0519
RRIRDRPPRLPRPRPRPLCAPRP | 0.783
RRIRDRPPRLPRPRPRPLDKPRP | -0.0615
RRIRDRPPRLPRPRPRPLESPRP | 0.258
RRIRDRPPRLPRPRPRPLETPRP | 0.73
RRIRDRPPRLPRPRPRPLEWPRP | 0.421
RRIRDRPPRLPRPRPRPLFFPRP | 0.648
RRIRDRPPRLPRPRPRPLGFPRP | -0.0377
RRIRDRPPRLPRPRPRPLGPPRP | 0.191
RRIRDRPPRLPRPRPRPLIAPRP | 0.468
RRIRDRPPRLPRPRPRPLIWPRP | 0.176
RRIRDRPPRLPRPRPRPLKDPRP | -0.225
RRIRDRPPRLPRPRPRPLMIPRP | 0.072
RRIRDRPPRLPRPRPRPLPAPRP | 0.574
RRIRDRPPRLPRPRPRPLPSPRP | -0.0341
RRIRDRPPRLPRPRPRPLRKPRP | 1.36
RRIRDRPPRLPRPRPRPLSPPRP | -0.0511
RRIRDRPPRLPRPRPRPLSTPRP | 0.377
RRIRDRPPRLPRPRPRPLWKPRP | 0.0179
RRIRDRPPRLPRPRPRPLWSPRP | -0.0446
RRIRDRPPRLPRPRPRPLWVPRP | -0.0158
RRIRDRPPRLPRPRPRPMARPRP | 0.0954
RRIRDRPPRLPRPRPRPMAVPRP | 0.417
RRIRDRPPRLPRPRPRPMCAPRP | 0.0829
RRIRDRPPRLPRPRPRPMCHPRP | 0.216
RRIRDRPPRLPRPRPRPMCTPRP | -0.0135
RRIRDRPPRLPRPRPRPMEPPRP | 0.127
